Laboratory results taken from US20210380680A1 (ZLLP, published 2021).
Like-named read-outs stand apart in the source and are kept apart here.

What was measured:
[1] = target: CLDN18.2 endogenously expressed on SNU620 gastric cancer cells (UniProt P56856); assay: FACS Exp. 3, SNU620 cells
[2] = target: T1, human Claudin 18.2 (CLDN18.2) (human, UniProt P56856-2 1-261); assay: FACS Exp. 1, MFI ratio CHO-18.2 over CHO-18.1
[3] = target: T1, human Claudin 18.2 (CLDN18.2); assay: FACS Exp. 2, MFI ratio CHO-18.2 over CHO-18.1
[4] = target: T1, human Claudin 18.2 (CLDN18.2); assay: cell-based or functional assay
[5] = target: T1, human Claudin 18.2 (CLDN18.2); assay: cell-based or functional assay; remark: listed apart in the source
[6] = target: T1, human Claudin 18.2 (CLDN18.2); assay: cell-based or functional assay; remark: listed apart in the source
[7] = target: T1, human Claudin 18.2 (CLDN18.2); assay: cell-based or functional assay; remark: listed apart in the source
[8] = target: T1, human Claudin 18.2 (CLDN18.2); assay: cell-based or functional assay; remark: listed apart in the source
[9] = target: T1, human Claudin 18.2 (CLDN18.2); assay: FACS on CHO-CLDN18.2 cells
[10] = target: T1, human Claudin 18.2 (CLDN18.2); assay: FACS
[11] = target: T1, human Claudin 18.2 (CLDN18.2); assay: FACS on CHO-CLDN18.2 cells; remark: listed apart in the source
Procedure: Binding curves were generated to rank the binding affinities of hybridoma antibodies. Briefly, a total of 1×10⁵ CHO-CLDN18.2 cells for each well were seeded in 96-well plate and washed by FACS buffer (DPBS containing 2% FBS) twice. Cells were incubated by series diluted purified hybridoma antibodies for 1 h. After primary antibody incubation, cells were washed by FACS buffer for two times. […] FlowJo software was used for analysis. Data was plotted as the logarithm of antibody concentration versus mean fluorescence signals. Nonlinear regression analysis was performed by GraphPad Prism 6 (GraphPad Software) and EC50 values were calculated.

human IgG1 isotype control (antibody)
MFI SNU620 (@30 ug/ml) [1]: 15.7 MFI
MFI CHO-18.2/CHO-18.1 (@30 ug/ml) [2]: 1.1
MFI CHO-18.2/CHO-18.1 (@30 ug/ml) [3]: 1

B1: 413H9F8-cp2-V2-DL (antibody, V domains shown)
VH: DVQLVESGGGLVQPGGSLRLSCAASGFTFSSFGMHWVRQAPGKGLEWVAYISSGSSPIYYVDKLKGRFTISRDNAKNSLYLQMNSLRAEDTAVYYCARAGYAVRNALDYWGQGTLVTVSS
VL: EIVMTQSPPTLSLSPGERVTLSCKSSQSLLNVGNQKNYLAWYQQKPGQAPRLLIYGASTRESGIPARFSGSGSGTDFTLTISSLQPEDFAVYYCQNDLFYPLTFGGGTKVEIK
ADCC EC50, CHO-CLDN18.2, FcR-TANK [4]: 0.001 nM
ADCC EC50, NUGC4-CLDN18.2, PBMC [5]: 0.0146 nM

B2: 413H9F8-H2L2 (antibody, V domains shown)
VH: EVQLVESGGGLVQPGGSLRLSCAASGFTFSSFGMHWVRQAPGKGLEWVAYISSGSSPIYYVDKLKGRFTISRDNAKNSLYLQMNSLRAEDTAVYYCARAGYAVRNALDYWGQGTLVTVSS
VL: DIVMTQSPDSLAVSLGERATINCKSSQSLLNVGNQKNYLAWYQQKPGQPPKLLIYGASTRESGVPDRFSGSGSGTDFTLTISSLQAEDVAVYFCQNDLFYPLTFGGGTKVEIK
notes: humanized IgG; constant regions not specified
% ADCC @ 6.67 nM, NCI-N87-CLDN18.2, FcR-TANK [6]: 13.7%
ADCC EC50, NCI-N87-CLDN18.2, FcR-TANK [6]: 0.33 nM
% specific cytotoxicity @ 6.67 nM, NUGC4-CLDN18.2, PBMC [7]: 33.2%
ADCC EC50, NUGC4-CLDN18.2, PBMC [7]: 6.14 nM
ADCC EC50, NUGC4-CLDN18.2, PBMC [5]: 0.48 nM
CDC EC50, human serum, CHO-CLDN18.2 [8]: 0.84 nM
EC50 [9]: 1.97 nM

B3: 413H9F8-H2L2-V2-DL (antibody, V domains shown)
VH: EVQLVESGGGLVQPGGSLRLSCAASGFTFSSFGMHWVRQAPGKGLEWVAYISSGSSPIYYVDKLKGRFTISRDNAKNSLYLQMNSLRAEDTAVYYCARAGYAVRNALDYWGQGTLVTVSS
VL: DIVMTQSPDSLAVSLGERATINCKSSQSLLNVGNQKNYLAWYQQKPGQPPKLLIYGASTRESGVPDRFSGSGSGTDFTLTISSLQAEDVAVYFCQNDLFYPLTFGGGTKVEIK
ADCC EC50, NUGC4-CLDN18.2, PBMC [5]: 0.0148 nM

B4: 413H9F8-H2L2-MG-DL (antibody, V domains shown)
VH: EVQLVESGGGLVQPGGSLRLSCAASGFTFSSFGMHWVRQAPGKGLEWVAYISSGSSPIYYVDKLKGRFTISRDNAKNSLYLQMNSLRAEDTAVYYCARAGYAVRNALDYWGQGTLVTVSS
VL: DIVMTQSPDSLAVSLGERATINCKSSQSLLNVGNQKNYLAWYQQKPGQPPKLLIYGASTRESGVPDRFSGSGSGTDFTLTISSLQAEDVAVYFCQNDLFYPLTFGGGTKVEIK
ADCC EC50, NUGC4-CLDN18.2, PBMC [5]: 0.0046 nM

B5: 364D1A7-VL-N31E (antibody, human IgG1, kappa, V domains shown)
VH: DVQLVESGGGLVQPGGSRKLSCAASGFTFSSFGMHWVRQAPEKGLEWVAYISSGSGSIYYADTVKGRFTLSRDNPKNTLFLQMTSLRSEDTAIYYCATSYYYGNALEYWGQGTSVTVSS
VL: DVVLTQSPSSLTVTEGEKVSMSCKSSQSLFESGNQKNYLTWYQQKPGQTPTLLIYWASTRKSGVPDRFTGSGSGTDFTLTINTVQAEDLAVYYCQNVYSYPLTFGAGTKLDLKR
notes: chimeric human IgG1, PTM site removed
binding result [10]: binds

B6: 364D1A7 (mouse hybridoma antibody) (antibody, V domains shown)
VH: DVQLVESGGGLVQPGGSRKLSCAASGFTFSSFGMHWVRQAPEKGLEWVAYISSGSGSIYYADTVKGRFTLSRDNPKNTLFLQMTSLRSEDTAIYYCATSYYYGNALEYWGQGTSVTVSS
VL: DVVLTQSPSSLTVTEGEKVSMSCKSSQSLFNSGNQKNYLTWYQQKPGQTPTLLIYWASTRKSGVPDRFTGSGSGTDFTLTINTVQAEDLAVYYCQNVYSYPLTFGAGTKLDLK
notes: purified mouse IgG from hybridoma
EC50 [11]: 5.22 nM

B7: 357B8F8 (mouse hybridoma antibody) (antibody, V domains shown)
VH: QVQLKESGPGLVAPSQSLSITCTVSGFSLTSYGVHWVRQPPGKGLEWLGVIWPGGNTNYNSALMSRLSISKDNSKSQVFLKMNSLQTDDTAMYYCARDRRLAMDYWGQGTSVTVSS
VL: DIVMTQSPSSLTVTAGEKVTMTCKSSQSLLNSGNQKNYLTWYQQKPGQPPKLLIYWASTRESGVPDRFTGSGSGTDFTLTISILQAEDLAVYYCQNDYSYPFTFGSGTKLEIK
notes: as for B6
EC50 [11]: 3.26 nM

B8: Ms175D10 (antibody, V domains shown)
VH: QVQLQQPGAELVRPGASVKLSCKASGYTFTSYWINWVKQRPGQGLEWIGNIYPSDSYTNYNQKFKDKATLTVDKSSSTAYMQLSSPTSEDSAVYYCTRSWRGNSFDYWGQGTTLTVSS
VL: DIVMTQSPSSLTVTAGEKVTMSCKSSQSLLNSGNQKNYLTWYQQKPGQPPKLLIYWASTRESGVPDRFTGSGSGTDFTLTISSVQAEDLAVYYCQNDYSYPFTFGSGTKLEIK
EC50 [11]: 3.68 nM

B9: 282A12F3-VH-N60E (antibody, human IgG1, kappa, V domains shown)
VH: QVQLKESGPVLVQPSQTLSLTCTVAGFSLTSYNVYWVRQPPGKGLEWMGVIWNTGATRYESTLKSRLSISKDTSKSQVFLKMNSLQTEDTATYYCARDSAMPAIPFAYWGQGTLVTVSS
VL: DIVMTQSPSSLAVSAGETVTINCKSSQSLFGSVRQKNYLAWYQQKPGQSPKLLIYLASTRESGVPDRFIGSGSGTDFTLTISSVQAEDLAKYYCQQYYDIPWTFGGGTKLELKR
notes: as for B5
binding result [10]: binds

B10: 282A12F3-VH-N60Q (antibody, human IgG1, kappa, V domains shown)
VH: QVQLKESGPVLVQPSQTLSLTCTVAGFSLTSYNVYWVRQPPGKGLEWMGVIWNTGATRYQSTLKSRLSISKDTSKSQVFLKMNSLQTEDTATYYCARDSAMPAIPFAYWGQGTLVTVSS
VL: DIVMTQSPSSLAVSAGETVTINCKSSQSLFGSVRQKNYLAWYQQKPGQSPKLLIYLASTRESGVPDRFIGSGSGTDFTLTISSVQAEDLAKYYCQQYYDIPWTFGGGTKLELKR
notes: as for B5
binding result [10]: binds

B11: hz282-1 (antibody, V domains shown)
VH: QVQLQESGPGLVKPSETLSLTCTVSGFSLTSYNVYWIRQPPGKGLEWIGVIWNTGATRYNSALKSRVTISVDTSKNQFSLKLSSVTAADTAVYYCARDSAMPAIPFAYWGQGTLVTVSS
VL: DIVMTQSPDSLAVSLGERATINCKSSQSLFGSVRQKNYLAWYQQKPGQPPKLLIYLASTRESGVPDRFSGSGSGTDFTLTISSLQAEDVAVYYCQQYYDIPWTFGGGTKVEIK
notes: humanized IgG; constant regions not specified; also called hz282-l
MFI SNU620 (@30 ug/ml) [1]: 69.6 MFI
MFI_CHO-18.2/CHO-18.1 (@30 ug/ml) [2]: 262

B12: hz282-9 (antibody, V domains shown)
VH: QVQLQESGPGLVKPSETLSLTCTVSGFSLTSYNVYWIRQPPGKGLEWIGVIWNTGATRYNSALKSRVTISVDTSKNQFSLKLSSVTAADTAVYYCARDSAMPAIPFAYWGQGTLVTVSS
VL: DIQMTQSPSSLSASVGDRVTITCKSSQSLFGSVRQKNYLAWYQQKPGKAPKLLIYLASTRESGVPSRFSGSGSGTDFTLTISSLQPEDFATYYCQQYYDIPWTFGGGTKVEIK
notes: as for B2
MFI SNU620 (@30 ug/ml) [1]: 308 MFI
MFI_CHO-18.2/CHO-18.1 (@30 ug/ml) [2]: 163

B13: hz282-5 (antibody, V domains shown)
VH: QVQLQESGPGLVKPSETLSLTCTVSGFSLTSYNVYWIRQPPGKGLEWIGVIWNTGATRYNSALKSRVTISVDTSKNQFSLKLSSVTAADTAVYYCARDSAMPAIPFAYWGQGTLVTVSS
VL: DIVMTQSPDSLAVSLGERATINCKSSQSLFGSVRQKNYLAWYQQKPGQSPKLLIYLASTRESGVPDRFSGSGSGTDFTLTISSLQAEDVAKYYCQQYYDIPWTFGGGTKVEIK
notes: as for B2
MFI SNU620 (@30 ug/ml) [1]: 135 MFI
MFI_CHO-18.2/CHO-18.1 (@30 ug/ml) [2]: 310

B14: hz282-17 (antibody, V domains shown)
VH: QVQLQESGPGLVKPSETLSLTCTVSGFSLTSYNVYWIRQPPGKGLEWIGVIWNTGATRYNSALKSRVTISVDTSKNQFSLKLSSVTAADTAVYYCARDSAMPAIPFAYWGQGTLVTVSS
VL: DIVMTQSPSSLSASVGDRVTINCKSSQSLFGSVRQKNYLAWYQQKPGKSPKLLIYLASTRESGVPDRFSGSGSGTDFTLTISSLQPEDFAKYYCQQYYDIPWTFGGGTKVEIK
notes: as for B2
MFI SNU620 (@30 ug/ml) [1]: 176 MFI
MFI_CHO-18.2/CHO-18.1 (@30 ug/ml) [2]: 249

B15: hz282-13 (antibody, V domains shown)
VH: QVQLQESGPGLVKPSETLSLTCTVSGFSLTSYNVYWIRQPPGKGLEWIGVIWNTGATRYNSALKSRVTISVDTSKNQFSLKLSSVTAADTAVYYCARDSAMPAIPFAYWGQGTLVTVSS
VL: DIQMTQSPSSLSASVGDRVTITCKSSQSLFGSVRQKNYLAWYQQKPGKSPKLLIYLASTRESGVPDRFSGSGSGTDFTLTISSLQPEDFAKYYCQQYYDIPWTFGGGTKVEIK
notes: as for B2
MFI SNU620 (@30 ug/ml) [1]: 144 MFI
MFI_CHO-18.2/CHO-18.1 (@30 ug/ml) [2]: 201

B16: 413H9F8-VL-N31E (antibody, human IgG1, kappa, V domains shown)
VH: DVQLVESGGGSVQPGGSRRLSCAASGFTFSSFGMHWVRQAPEKGLEWVAYISSGSSPIYYVDKLKGRFTVSRDNPKNTLFLQMTSLRSEDTAMYYCARAGYAVRNALDYWGQGTSITVSS
VL: DIVMTQSPSSLSVSVGEKVTLSCKSSQSLLESGNQKNYLAWYQQKTGQPPKLLIYGASTRESGVPDRFIGSGSGTDFTLTISSVQAEDLAVYFCQNDLFYPLTFGAGTKLELKR
notes: as for B5
binding result [10]: binds

B17: 413H9F8 (mouse hybridoma antibody) (antibody, V domains shown)
VH: DVQLVESGGGSVQPGGSRRLSCAASGFTFSSFGMHWVRQAPEKGLEWVAYISSGSSPIYYVDKLKGRFTVSRDNPKNTLFLQMTSLRSEDTAMYYCARAGYAVRNALDYWGQGTSITVSS
VL: DIVMTQSPSSLSVSVGEKVTLSCKSSQSLLNSGNQKNYLAWYQQKTGQPPKLLIYGASTRESGVPDRFIGSGSGTDFTLTISSVQAEDLAVYFCQNDLFYPLTFGAGTKLELK
notes: as for B6
EC50 [11]: 8.3 nM
